Data set [1] concerns the molecule itself. The experiment in a line: SEC; purified PepTSo2 in DDM-containing buffer, Superose 6 Increase column, tryptophan fluorescence (excitation 280 nm, emission 350 nm). For orientation: Size exclusion chromatography separates by hydrodynamic size, large species first.
Data set [2] concerns the molecule itself. The experiment in a line: SEC; fluorescence-detection SEC (FSEC) of the DDM-solubilised supernatant of E. coli cells mixed with the His tag-specific probe P3NTA (excitation 482 nm, emission 520 nm).

The record followed here is paper PMC6497099, “Structural basis for oligomerization of the prokaryotic peptide transporter PepTSo2” (Acta Crystallographica. Section F, Structural Biology …, 2019).

B1: PepTSo2 from Shewanella oneidensis, purified, His6 tag cleaved by TEV protease (natural protein, S. oneidensis)
chain: MTLGTNQVSKTHSFMTVSLIELWERFGYYGMQALIVYFMVQRLGFDDSRANLVWSACAALIYVSPAIGGWVGDKILGTKRTMLLGAGILSVGYALMTVPTENTWFMFSALGVIVVGNGLFKPNAGNLVRKIYEGDDSKIDSAFTIYYMAVNVGSTFSMLLTPWIKDYVNAQYGNEFGWHAAFAVCCVGILVGLGNYALMHKSLANYGSEPDTRPVNKKSLAIVLALAALSVVASAIILEYEDVARVFVYAAGVAVLGIFFHLIRTSEPSERAGLIAALILTVQTVFFFIFYQQMSTSLALFALRNVDWDFQVFGTHLWTWSPAQFQALNPIWIMVLSPVLAWSYSWAGRNNKDFSIAAKFALGFAVVAIGFFIYGFAGQFAVNGKTSSWVMIWGYASYSLGELLVSGLGLAMIARYVPARMGGFMMGAYFVASGISQYLGGVVANFASVPQDLVDPLQTLPVYTNLFNKLGVAAVVCTIIALAVLPLMRRLTESHHAHSSIENNAAASLRDVKAEQLESSGENLYFQ
notes: full-length PepTSo2, Shewanella oneidensis, UniProt Q8EHE6; Detergent-solubilised (DDM) for SEC; in Salipro nanoparticles (saposin A, DMPG) for cryo-EM; in monoolein lipidic cubic phase for crystals; also called tetrameric PepTSo2; purified PepTSo2; source: E. coli Rosetta 2 (DE3), purified (DDM solubilisation, Ni-NTA, TEV cleavage, second Ni-NTA, SEC); not shown: His6, C-terminal, cleaved
For B1, the “stoichiometry N” value in data set [1] is 4.

B2: C-terminally His6-tagged full-length PepTSo2 (tag kept, FSEC screening) (natural protein, S. oneidensis)
chain: MTLGTNQVSKTHSFMTVSLIELWERFGYYGMQALIVYFMVQRLGFDDSRANLVWSACAALIYVSPAIGGWVGDKILGTKRTMLLGAGILSVGYALMTVPTENTWFMFSALGVIVVGNGLFKPNAGNLVRKIYEGDDSKIDSAFTIYYMAVNVGSTFSMLLTPWIKDYVNAQYGNEFGWHAAFAVCCVGILVGLGNYALMHKSLANYGSEPDTRPVNKKSLAIVLALAALSVVASAIILEYEDVARVFVYAAGVAVLGIFFHLIRTSEPSERAGLIAALILTVQTVFFFIFYQQMSTSLALFALRNVDWDFQVFGTHLWTWSPAQFQALNPIWIMVLSPVLAWSYSWAGRNNKDFSIAAKFALGFAVVAIGFFIYGFAGQFAVNGKTSSWVMIWGYASYSLGELLVSGLGLAMIARYVPARMGGFMMGAYFVASGISQYLGGVVANFASVPQDLVDPLQTLPVYTNLFNKLGVAAVVCTIIALAVLPLMRRLTESHHAHSSIENNAAASLRDVKAEQLESSGENLYFQGQFTSSV
notes: full-length PepTSo2, Shewanella oneidensis, UniProt Q8EHE6; cloning artifact with the TEV protease site, between PepTSo2 and the His6 tag (not cleaved in this experiment); Detected in FSEC by the histidine tag-specific fluorescent probe P3NTA; also called His6-tagged PepTSo2; His6 construct; source: E. coli Rosetta 2 (DE3) or C41 (DE3) with pRARE, DDM-solubilised supernatant of disrupted cells; …
Take B2: in data set [2], the “stoichiometry N” value stood at 4.

One may read the stoichiometry N as the number of molecules, sites or subunits per partner or assembly.
